In patent publication US20140363428A1 (Chugai, published 2014):
Changes are numbered by the printed parent chain.

B1: IgG1-F1370 (antibody)
heavy: QVQLQESGPGLVKPSETLSLTCAVSGHSISHDHAWSWVRQPPGEGLEWIGFISYSGITNYNPSLQGRVTISRDNSKNTLYLQMNSLRAEDTAVYYCARSLARTTAMDYWGEGTLVTVSSASTKGPSVFPLAPSSKSTSGGTAALGCLVKDYFPEPVTVSWNSGALTSGVHTFPAVLQSSGLYSLSSVVTVPSSSLGTQTYICNVNHKPSNTKVDKKVEPKSCDKTHTCPPCPAPELRGGPKVFLFPPKPKDTLYITREPEVTCVVVDVSHEDPEVKFNWYVDGVEVHNAKTKPREEQYNSTYRVVSVLTVLHQDWLNGKEYKCKVSNKALPAPIEKTISKAKGQPREPQVYTLPPSRDELTKNQVSLTCLVKGFYPSDIAVEWESNGQPENNYKTTPPVLDSDGSFFLYSKLTVDKSRWQQGNVFSCSVMHEALDYHVTKKELSLSP
light: not shown
B2: IgG1-F1413 (antibody)
heavy: B1 heavy with T309Q, Q313A
light: not shown
B3: IgG1-F1378 (antibody)
heavy: B1 heavy with T256S, E258T, D435H, V438T, K440Q, E442S
light: not shown
B4: IgG1-F1416 (antibody)
heavy: B1 heavy with V310P
light: not shown
B5: IgG1-F1379 (antibody)
heavy: B1 heavy with T256S, E258T, D435H, V438F, K440Q, E442S
light: not shown
B6: IgG1-F1420 (antibody)
heavy: B1 heavy with T256S, E258T, Y436W
light: not shown
B7: IgG1-F1371 (antibody)
heavy: B1 heavy with K440R
light: not shown
B8: IgG1-F1419 (antibody)
heavy: B1 heavy with T256S, E258T, Y436W, K440R
light: not shown
B9: IgG1-F1426 (antibody)
heavy: B1 heavy with T256S, V305E, V310P, K440R
light: not shown
B10: IgG1-F1428 (antibody)
heavy: B1 heavy with T256S, S306E, V310P, K440R
light: not shown
B11: IgG1-F1418 (antibody)
heavy: B1 heavy with Y436W, K440R
light: not shown
B12: IgG1-F1430 (antibody)
heavy: B1 heavy with T256S, V307E, V310P, K440R
light: not shown
B13: IgG1-F1422 (antibody)
heavy: B1 heavy with T256S, V310P, K440R
light: not shown
B14: IgG1-F1425 (antibody)
heavy: B1 heavy with T256S, V305D, V310P, K440R
light: not shown
B15: IgG1-F1433 (antibody)
heavy: B1 heavy with T256S, T309D, V310P, K440R
light: not shown
B16: IgG1-F1415 (antibody)
heavy: B1 heavy with Q313A
light: not shown
B17: IgG1-F1417 (antibody)
heavy: B1 heavy with Y436W
light: not shown
B18: IgG1-F1424 (antibody)
heavy: B1 heavy with T256S, V304E, V310P, K440R
light: not shown
B19: IgG1-F1423 (antibody)
heavy: B1 heavy with T256S, V304D, V310P, K440R
light: not shown
B20: IgG1-F1421 (antibody)
heavy: QVQLQESGPGLVKPSETLSLTCAVSGHSISHDHAWSWVRQPPGEGLEWIGFISYSGITNYNPSLQGRVTISRDNSKNTLYLQMNSLRAEDTAVYYCARSLARTTAMDYWGEGTLVTVSSASTKGPSVFPLAPSSKSTSGGTAALGCLVKDYFPEPVTVSWNSGALTSGVHTFPAVLQSSGLYSLSSVVTVPSSSLGTQTYICNVNHKPSNTKVDKKVEPKSCDKTHTCPPCPAPELLGGPSVFLFPPKPKDTLMISRTPEVTCVVVDVSHEDPEVKFNWYVDGVEVHNAKTKPREEQYNSTYRVVSVLTPLHQDWLNGKEYKCKVSNKALPAPIEKTISKAKGQPREPQVYTLPPSRDELTKNQVSLTCLVKGFYPSDIAVEWESNGQPENNYKTTPPVLDSDGSFFLYSKLTVDKSRWQQGNVFSCSVLHEALHWHYTQKSLSLSP
light: not shown
B21: IgG1-F1414 (antibody)
heavy: B1 heavy with T309Q
light: not shown
B22: IgG1-F1434 (antibody)
heavy: B1 heavy with T256S, T309E, V310P, K440R
light: not shown
B23: IgG1-F1411 (antibody)
heavy: B20 heavy with I334V, W436S
light: not shown
B24: Fv-4-F947 (antibody, human IgG1, kappa)
heavy: B20 heavy with T252V, M254Y, T309Q, Q313A, L430M, W436Y, Y438V
light: DIQMTQSPSSLSASVGDSVTITCQASTDISSHLNWYQQKPGKAPELLIYYGSHLLSGVPSRFSGSGSGTDFTFTISSLEAEDAATYYCGQGNRLPYTFGQGTKVEIERTVAAPSVFIFPPSDEQLKSGTASVVCLLNNFYPREAKVQWKVDNALQSGNSQESVTEQDSKDSTYSLSSTLTLSKADYEKHKVYACEVTHQGLSSPVTKSFNRGEC
B25: Fv-4-F1070 (antibody, human IgG1, kappa)
heavy: B20 heavy with M254Y, P310V, L430M, W436Y, Y438V, Q440R
light: B24 light
B26: Fv-4-F1063 (antibody, human IgG1, kappa)
heavy: B20 heavy with M254Y, P310V, P389S, L430M, W436Y, Y438V
light: B24 light
B27: Fv-4-F1104 (antibody, human IgG1, kappa)
heavy: B20 heavy with M254Y, P310V, V424E, S426R, L430M, W436Y, Y438V
light: B24 light
B28: Fv-4-F1069 (antibody, human IgG1, kappa)
heavy: B20 heavy with M254Y, P310V, L430M, W436Y, Y438V, Q440E
light: B24 light
B29: Fv-4-F1066 (antibody, human IgG1, kappa)
heavy: B20 heavy with M254Y, P310V, V424S, L430M, W436Y, Y438V
light: B24 light
B30: Fv-4-F1071 (antibody, human IgG1, kappa)
heavy: B20 heavy with M254Y, P310V, L430M, W436Y, Y438V, Q440S
light: B24 light
B31: Fv-4-F1060 (antibody, human IgG1, kappa)
heavy: B20 heavy with M254Y, P310V, Q388S, L430M, W436Y, Y438V
light: B24 light
B32: Fv-4-F1064 (antibody, human IgG1, kappa)
heavy: B20 heavy with M254Y, P310V, V424E, L430M, W436Y, Y438V
light: B24 light
B33: Fv-4-F1059 (antibody, human IgG1, kappa)
heavy: B20 heavy with M254Y, P310V, Q388R, L430M, W436Y, Y438V
light: B24 light
B34: Fv-4-F1105 (antibody, human IgG1, kappa)
heavy: B20 heavy with M254Y, P310V, V424S, S426R, L430M, W436Y, Y438V
light: B24 light
B35: Fv-4-F1072 (antibody)
heavy: B20 heavy with M254Y, P310V, L430M, W436Y, Y438V, S442E
light: B24 light
B36: Fv-4-F1062 (antibody, human IgG1, kappa)
heavy: B20 heavy with M254Y, P310V, P389R, L430M, W436Y, Y438V
light: B24 light
B37: Fv-4-F1067 (antibody, human IgG1, kappa)
heavy: B20 heavy with M254Y, P310V, S426E, L430M, W436Y, Y438V
light: B24 light
B38: Fv-4-F1068 (antibody, human IgG1, kappa)
heavy: B20 heavy with M254Y, P310V, S426R, L430M, W436Y, Y438V
light: B24 light
B39: Fv-4-F1061 (antibody, human IgG1, kappa)
heavy: B20 heavy with M254Y, P310V, P389E, L430M, W436Y, Y438V
light: B24 light
B40: Fv-4-F1058 (antibody, human IgG1, kappa)
heavy: B20 heavy with M254Y, P310V, Q388E, L430M, W436Y, Y438V
light: B24 light
B41: Fv-4-F1073 (antibody)
heavy: B20 heavy with M254Y, P310V, L430M, W436Y, Y438V, S442R
light: B24 light
B42: Fv-4-F1065 (antibody, human IgG1, kappa)
heavy: B20 heavy with M254Y, P310V, V424R, L430M, W436Y, Y438V
light: B24 light

Molecular target: T1, soluble human FcRn (human, UniProt P55899 24-297; P61769 21-119)
T1 construct: Heterodimer of alpha chain and beta2-microglobulin; also called hFcRn
Test: SPR (Biacore), pH 7.0

Row | Kd | Binder
1 | 91 nM | B1
2 | 37 nM | B2
3 | 360 nM | B3
4 | 13 nM | B4
5 | 280 nM | B5
6 | 130 nM | B6
7 | 110 nM | B7
8 | 150 nM | B8

Molecular target: T1, soluble human FcRn
Test: SPR (Biacore), pH 7.0, 25 C;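 further: antibodies captured on a protein L-coated CM4 chip with human FcRn injected as analyte, KD obtained from ka and kd fitted to sensorgrams, in sodium phosphate buffer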
Description: An appropriate amount of protein L (ACTIGEN) was immobilized onto Sensor chip CM4 (GE Healthcare) by the amino coupling method, and the chip was allowed to capture an antibody of interest. Then, diluted FcRn solutions and running buffer (as a reference solution) were injected to allow human FcRn to interact with the antibody captured on the sensor chip. The running buffer used comprised 50 mmol/l sodium phosphate, 150 mmol/l NaCl, and 0.05% (w/v) Tween20 (pH 7.0). FcRn was diluted using each buffer. The chip was regenerated using 10 mmol/l glycine-HCl (pH 1.5). Assays were carried out exclusively at 25 degrees C. The association rate constant ka (1/Ms) and dissociation rate constant kd (1/s), both of which are kinetic parameters, were calculated based on the sensorgrams obtained in the assays, and KD (M) of each antibody for human FcRn was determined from these values. Each parameter was calculated using Biacore T100 Evaluation Software (GE Healthcare).

Row | Kd | Binder
9 | 91 nM | B1
10 | 37 nM | B2
11 | 18 nM | B9
12 | 15 nM | B10
13 | 75 nM | B11
14 | 31 nM | B12
15 | 19 nM | B13
16 | 19 nM | B14
17 | 45 nM | B15
18 | 360 nM | B3
19 | 59 nM | B16
20 | 59 nM | B17
21 | 13 nM | B4
22 | 280 nM | B5
23 | 130 nM | B6
24 | 16 nM | B18
25 | 16 nM | B19
26 | 32 nM | B20
27 | 110 nM | B7
28 | 150 nM | B8
29 | 56 nM | B21
30 | 36 nM | B22
31 | 170 nM | B23

Molecular target: T1, soluble human FcRn
Test: SPR (Biacore), pH 7.0
Remark: another data set of the same source

Row | Kd | Binder
32 | 11.1 nM | B24
33 | 170 nM | B25
34 | 140 nM | B26
35 | 180 nM | B27
36 | 140 nM | B28
37 | 140 nM | B29
38 | 120 nM | B30
39 | 140 nM | B31
40 | 130 nM | B32
41 | 140 nM | B33
42 | 150 nM | B34
43 | 130 nM | B35
44 | 120 nM | B36
45 | 130 nM | B37
46 | 170 nM | B38
47 | 120 nM | B39
48 | 130 nM | B40
49 | 134 nM | B41
50 | 140 nM | B42
